Data from the supplement of paper PMC10567573.
± gives the standard deviation.

Assay: protein stability index of a GFP-peptide fusion (GPS, HEK-293T) (PSI 1-6); higher = more stable
[1] = treatment: DMSO, c terminus: a fixed tail appended
[2] = treatment: MLN4924 1 uM, 8 h, c terminus: a fixed tail appended
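Also: 24-mer peptide tiles fused after GFP, lentivirally expressed, FACS-sorted into six equal bins by GFP/DsRed ratio, decoded by Illumina sequencing, PSI is the read-weighted mean bin number.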

Sequence	protein stability index [1]	protein stability index [2]	protein stability index (treatment: DMSO, c terminus: native)	protein stability index (treatment: MLN4924 1 uM, 8 h, c terminus: native)
YMVQDQHECILPFVQVKGNFARLQ [M1AP]	2.56 ± 0.37	2.55 ± 0.42		
KNIFRIRFHDPSPAQSHTLQANDV [NET1]	2.76 ± 0.31	3.06 ± 0.24		
DSPSKEEVFRFVQSCARAVVPSYI [CPOX]	2.48 ± 0.55	2.5 ± 0.32		
FFPWREAKPGSTEKGLPLRKTHVL [MFSD9]	2.72 ± 0.28	2.82 ± 0.076		
EFSLVNVNLQRFGMNGQMLCNLGK [ETS2]	2.32 ± 0.4	2.58 ± 0.16		
LNRRNGSLRIALSEHLKQRREVAK [EDNRA]	3.27 ± 0.45	3.25 ± 0.27		
QSKGHGRAVDWWALGILIFEMLSG [PRKX]	2.58 ± 0.58	2.56 ± 0.36		
IWLAESVLDILTEQREWVLKSSIL [INTS3]	2.88 ± 0.82	2.6 ± 0.84		
NMAGVTFRKFIPKCSKIVIDFDSI [DCTD]	2.5 ± 0.39	1.95 ± 0.32		
SKAHLEKVRSYVKRALAEGAQIWC [ALDH8A1]	3.23 ± 0.73	3.19 ± 0.56		
MGGTQQQFVEGVRMEEIVEGCTGA [CTNNB1]	5.09 ± 0.15	5.1 ± 0.072		
LKRSIPQVSPVRRAPSRRHGVRAK [CPN1]	4.58 ± 0.23	4.67 ± 0.17		
ASLKSEAESLKGKLEEERAKLHDV [GNB5]	5.32 ± 0.11	5.26 ± 0.32		
LNLGSGTGYLSSMVGLILGPFGVN [PCMTD2]	2.42 ± 0.51	2.48 ± 0.38		
SSDPFYTPEPDTCHELLGHVPLLA [TPH1]	3.17 ± 0.35	3.31 ± 0.15		
CKICGRTFFPVALKKHGPICQKTA [ZC2HC1A]	3.58 ± 0.063	3.92 ± 0.38		
PQGSRSPYIPPHAALCLEVTLKTA [FKBP8]	2.26 ± 0.33	2.1 ± 0.22		
CRGNQHDVPVIPLDVVDNQTEKLD [CASP6]	5.05 ± 0.26	5.03 ± 0.13		
AIRRFQSMPVRLLGHSPVLRNITN [CDC25B]	2.42 ± 0.35	2.24 ± 0.22		
ARPSSASIRDANLYVSGLPKTMSQ [ELAVL3]	4.08 ± 0.61	3.81 ± 0.098		
AVQRLEGALWGLQAQAVQTEQAVA [SCARA5]	2.89 ± 0.19	3.01 ± 0.34		
LFEGLGRDKAEELLQLPDTKVGSF [SLA]	3.82 ± 0.28	4.13 ± 0.15		
FGPDSKSSALACTLPTLPAKVYVG [NCF4]	2.74 ± 0.12	3.03 ± 0.43		

Sequence	protein stability index [1]	protein stability index [2]	protein stability index (treatment: DMSO, c terminus: native)	protein stability index (treatment: MLN4924 1 uM, 8 h, c terminus: native)
APSNSTSLNSTFGSTNLTGLFFPP [NFE2L1]	3.32 ± 0.26	3.08 ± 0.29		
PVCRKTSRYRSLRPNRQLGSMVEI [TRIM39]	2.61 ± 0.15	2.83 ± 0.089		
PARLLLQALQAGPEGARRGLGVLR [FANCE]	2.67 ± 0.16	2.82 ± 0.34		
EAFQIVLSHLLGDAGSPYLIGLIS [SPNS1]	3.11 ± 0.37	2.98 ± 0.41		
PPHPAPAPQHPAASALRTRMTGGR [DYRK1B]	4.86 ± 0.23	4.9 ± 0.13		
LTIMPYNSAHHCVVEVENFLFVLG [KLHL14]	3.26 ± 0.64	3.02 ± 0.32		
AINRDTAFPGASHESSGNPPLRVI [RHOBTB3]	3.44 ± 0.049	3.47 ± 0.29		
QRLDYEREIQPTAILSLDQIKAIR [SPRY1]	3.7 ± 0.061	3.87 ± 0.24		
FAWPFYQPVDAIKLNLPDYHKIIK [BRD3]	2.24 ± 0.67	2.19 ± 0.25		
PRAKSKVWKYFGFDTNAEGCILQW [ZBED1]	2.3 ± 0.59	2.38 ± 0.081		
QQDLERSLQDASRGDPAHAGLAEL [PBXIP1]	5.32 ± 0.18	5.38 ± 0.16		
TTTVTAVTAEVDLFGDAFAASPGE [SNAP91]	4.54 ± 0.13	4.59 ± 0.28		
GGRPGGRGAPAVQQNIPSTLLQDH [WAS]	4.81 ± 0.13	4.77 ± 0.23		
GAPSVGQPGAGFGMPPAGTGMPMM [SNAP91]	3.61 ± 0.23	3.76 ± 0.23		
KEEKCQGKGDDSETDKNNCSNAKA [KCNA4]	5.49 ± 0.088	5.55 ± 0.19		
TNEAACLLDNPLCADVLFILQDQE [RHOBTB1]	3.66 ± 0.24	3.82 ± 0.24		
MIRESETKKGFYSLSVRHRQVKHY [SLA]	2.59 ± 0.44	2.94 ± 0.13		
RRDPSIPIYGLRQSILLNTRLQDC [C22orf31]	2.74 ± 0.55	2.37 ± 0.31		
EDQAEAWGCSCCPPETKHQALSGT [TSPAN10]	4.71 ± 0.31	4.67 ± 0.18		
SATLVGFTVGSVLGQILVSVAGWS [SLC19A2]	3.13 ± 0.21	3.23 ± 0.89		
VRERDRLGNEYPKLHYPELYVLKG [CDC25A]	2.62 ± 0.21	2.75 ± 0.12		
EEQVILTEKDLLEDGFGEHPFYHC [SAT1]	3.95 ± 0.24	4.15 ± 0.42		
SSRFSSSRLLGSASPSSSVRLGSF [PRPH]	2.82 ± 0.24	2.83 ± 0.18		

Sequence	protein stability index [1]	protein stability index [2]	protein stability index (treatment: DMSO, c terminus: native)	protein stability index (treatment: MLN4924 1 uM, 8 h, c terminus: native)
ESSTRLLLEKNASVNEVDFEGRTP [RIPK4]	4.83 ± 0.79			
DDYPSRGYSDRDGYGRDRDYSDHP [RBMX]	4.85 ± 0.3	4.87 ± 0.22		
LTFLTKQEILLAHRRFCELLPQEQ [CIB1]	2.4 ± 0.44	2.55 ± 0.19		
STPTTPGSTAITPGTPPSYSSRTP [MAP2]	4.88 ± 0.1	5.06 ± 0.15		
VGEVLKDIETACKLLNITADPMDW [SPDEF]	2.71 ± 0.17	2.51 ± 0.27		
NLQSLKTPTLKVFMHENLYFTNRK [DCAF4]	2.73 ± 0.26	2.65 ± 0.2		
CIMDDAINILQNEKSHQVLAQLLD [INTS4]	2.18 ± 0.21	2.37 ± 0.23		
VPWLNLKKQDENEGIKVEDLLFIV [CEP70]	1.97 ± 0.42	2.26 ± 0.22		
HVIHIIDFGLAKEYIDPETKKHIP [CSNK1G1]	1.99 ± 0.29	2.16 ± 0.087		
PRTSEAQARKALFEKWEQETAAGK [SMTNL2]	5.1 ± 0.31	5.02 ± 0.24		
YKSFSKEQQTMDNLEKQLICPICL [TRIM55]	2.72 ± 0.38	2.77 ± 0.8		
GTAITSQYLAERYKVNTPMLQSFI [SLC35F2]	2.58 ± 0.57	2.26 ± 0.38		
ISLINTRMLFWACSTNKPEGYRVS [FAF2]	2.5 ± 0.61	2.35 ± 0.39		
ELPSALESHEVPGTLSMGVPQIFK [ZNF24]	4.07 ± 0.12	4.11 ± 0.13		
EACGRCEEVPEAYVDIHTGLSGSG [PYCR3]	4.29 ± 0.67	4.57 ± 0.11		
GHDKCVSWMCTRSGNMLGRHFFTS [WDFY1]	2.35 ± 0.36	2.35 ± 0.18		
LGHAAAFSDDCDLPSAQDINRLVG [GLT8D2]	4.23 ± 0.18	4.43 ± 0.24		
VVHQRVHSGEKPYKCSDCGKTFKQ [ZNF232]	3.29 ± 0.25	3.43 ± 0.23		
ISLWPREPPPKSGPSLVPGKTPTV [CD207]	3.06 ± 0.18	3.43 ± 0.084		
PRKRHREDSDVEMVEDDSRKEMTA [MLH1]	5.43 ± 0.25	5.49 ± 0.18		
YQCPDQMARNPAAIDMFIIGATFT [FBXO3]	3.02 ± 0.48	2.51 ± 0.77		
GYNPDYDESGGPDNEDYPLFRELW [KLHDC10]	3.37 ± 0.36	3.47 ± 0.18		
ARLNGSVASYILASHNGISYKDLD [TENT5D]	2.85 ± 0.47	2.68 ± 0.21		

Sequence	protein stability index [1]	protein stability index [2]	protein stability index (treatment: DMSO, c terminus: native)	protein stability index (treatment: MLN4924 1 uM, 8 h, c terminus: native)
LLAWRCTKLSLLAIHGYTVWAHNL [FBXO33]	3.15 ± 0.21	3.13 ± 0.34		
SGSSYRDALQRYGTSHGAPPARGP [RBMY1A1]	4.1 ± 0.22	4.14 ± 0.25		
QALSNVPPLRNYFLEEDNYKNIKR [USP39]	3.77 ± 0.28	4.18 ± 0.48		
SLAQGPDAATTDELSSLGSDSEAN [TBC1D10A]	5.56 ± 0.19	5.5 ± 0.18		
EGGKLPPPPPPSYDPDYIQCPYCQ [ZC2HC1A]	4.03 ± 0.3	4.45 ± 0.27		
AAANKLFHYIPGTDILDLENQREN [PLEKHN1]	4.13 ± 0.3	3.92 ± 0.43		
WLFGATAVALGGVALSVVIAARN [FKBP8]			2.51 ± 0.55	2.59 ± 0.4
TQIIGEQNARLAELERKLREVMES [FBXO28]	3.71 ± 0.22	3.68 ± 0.12		
LKTQSLEGKRKAFYTCASHVTVVI [OR4A15]	2.91 ± 0.35	3.24 ± 0.46		
SSASSEQGLLGRSPPTRPVPGHRS [SPRY1]	4.82 ± 0.27	4.8 ± 0.12		
SFVESANSEVYLPNINKISMQAVL [RHOBTB1]	2.43 ± 0.21	2.2 ± 0.34		
RHCDDDGRTENGALAPKQELPSAL [ZNF24]	5.25 ± 0.22	5.15 ± 0.21		
LRGGGQVLLGWTLHYFPFFLMGRV [POMT2]	3.01 ± 0.44	2.99 ± 0.37		
YVALQTKGALQKKPLYVAFSFMYI [KCNK9]	3.44 ± 0.89	2.85 ± 0.8		
AMCVGCGSQIHDQFILRVSPDLEW [ISL2]	2.18 ± 0.36	2.16 ± 0.21		
PFNKVQSARFWIPGEPNNAGNNEH [CD207]	3.92 ± 0.35	3.93 ± 0.17		
AVIDSEKDMNFLKRYAGREEHWVG [CD69]	2.72 ± 0.39	3.08 ± 0.29		
MGNLVMFRKDSVLNILIQSLDWET [INTS3]	2.68 ± 0.64	2.82 ± 0.45		
LEKDTMDNWDEKKLEEVVNKKHGE [ZC3H15]	5.54 ± 0.095	5.46 ± 0.19		
AYTQTQFHNLRNTLDGYGIHPKSI [NFE2L1]	2.57 ± 0.3	2.34 ± 0.26		
